{
  "source": "patent US20250002570A1",
  "about": "(Innovent, published 2025)",
  "key": {"[1]": {"molecular_target": "T1, human VEGF C (human, UniProt P49767 103-227, limits assumed)", "T1 construct": "also called hVEGFC; hVEGF C", "T1 sequence (looked up)": "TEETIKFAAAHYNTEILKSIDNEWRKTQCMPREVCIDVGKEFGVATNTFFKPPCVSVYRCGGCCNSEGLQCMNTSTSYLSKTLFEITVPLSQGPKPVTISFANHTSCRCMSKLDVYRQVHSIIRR", "assay": "ELISA blocking: VEGFC-biotin captured on streptavidin plate; blocked receptor VEGFR2-Fc (0.2 ug/mL), detected with anti-human Fc-HRP, OD450", "description": "The blocking effects of the antibodies of the present invention on the binding of hVEGFC to a receptor KDR were determined.\n(§1) SA (streptavidin) was diluted to 1 μg/mL, and 100 μL/well of SA was plated in a microplate at 4° C. overnight. The plate was washed 3 times with PBST and blocked with 3% BSA for 1.5 h. The plate was washed 3 times with PBST, 50 ng/ml of VEGFC-biotin (biotin-labeled human VEGF C) was added, and the plate was incubated for 1.5 h. 50 μL of antibody was incubated with VEGFR2-Fc (with a final concentration of 0.2 μg/mL, Beijing Sino Biological) or VEGFR3-Fc (with a final concentration of 0.2 μg/mL, Beijing Sino Biological) for 20 min in advance, and the mixture was added to the plate. The plate was washed 3 times with PBST, an anti-human FcHRP antibody (diluted in a ratio of 1:10000, BETHYL) was added, and then the plate was incubated for 30 min. The plate was washed 6 times with PBST, the color development was performed with TMB (SOLARBIO) for 5 min, and OD450 nm was read after stopping."}, "[2]": {"molecular_target": "T1, human VEGF C", "assay": "ELISA blocking: VEGFC-biotin captured on streptavidin plate; blocked receptor VEGFR3-Fc (0.2 ug/mL), detected with anti-human Fc-HRP, OD450", "description": "as §1"}, "[3]": {"molecular_target": "T1, human VEGF C", "assay": "BLI (ForteBio), bivalent binding, 30 C; * beyond the ForteBio detection limit", "description": "(§2) The equilibrium dissociation constant (KD) for binding of the antibodies of the present invention to human VEGF C was determined by bio-layer interferometry (ForteBio). A ForteBio affinity assay of prior art was performed (Estep. P., et al., “High throughput solution Based measurement of antibody-antigen affinity and epitope binning”, MAbs, 2013.5(2): 270-8).\n(§3) 100 μL of SD buffer, antibodies, and antigens (human VEGF C, Beijing Sino Biological) were added to a 96-well black polystyrene half-area microplate (Greiner, 675076). The sensors were arranged according to the positions of the samples. The instrument settings were as follows: the operation procedures were Baseline, Loading −1 nm, Baseline, Association, and Dissociation; the run time of each procedure was dependent on the rates of association and dissociation; the rotation speed was 400 rpm, and the temperature was 30° C. The KD values were analyzed by ForteBio analysis software."}, "[4]": {"molecular_target": "T1, human VEGF C", "assay": "ELISA blocking: VEGFC-biotin captured on streptavidin plate; blocked receptor VEGFR3-Fc (0.2 ug/mL), detected with anti-human Fc-HRP, OD450", "description": "as §1", "remark": "listed apart in the source"}, "[5]": {"molecular_target": "T1, human VEGF C", "assay": "ELISA blocking: VEGFC-biotin captured on streptavidin plate; blocked receptor VEGFR3-Fc (0.2 ug/mL), detected with anti-human Fc-HRP, OD450", "description": "as §1", "remark": "listed apart in the source"}, "[6]": {"molecular_target": "T1, human VEGF C", "assay": "BLI (ForteBio), monovalent binding, 30 C", "description": "as §2, §3"}, "[7]": {"molecular_target": "T1, human VEGF C", "assay": "BLI (ForteBio), bivalent binding, 30 C", "description": "as §2, §3"}, "[8]": {"molecular_target": "T1, human VEGF C", "assay": "BLI (ForteBio), bivalent binding, 30 C; * beyond the ForteBio detection limit; bivalent binding, ForteBio; kdis at the detection limit", "description": "as §2, §3"}},
  "data": [
    {"molecule": "OPT-302-His", "values": [
      {"measurement": "IC50", "setting": "[1]", "result": 0.0118, "unit": "µg/mL"}
    ]},
    {"molecule": "LA63G12 anti-VEGF C VHH antibody (VHH, The prokaryotic product was purified on Ni Sepharose) VHH: QLQLVESGGGLVQPGGSLRLSCAASGSSFSPYAMGWYRQAPGKQRELVAATTSGGSTLYADSVKGRFTISRDNAKNTVYLQMNSLKPEDTAVYYCYMHWRGSDPENYWGQGTQVTVSS", "values": [
      {"measurement": "IC50", "setting": "[2]", "result": 0.342, "unit": "µg/mL"},
      {"measurement": "IC50", "setting": "[1]", "result": 0.159, "unit": "µg/mL"},
      {"measurement": "koff", "setting": "[3]", "result": "≤ 0.0002", "unit": "s⁻¹"},
      {"measurement": "IC50", "setting": "[4]", "result": 0.125, "unit": "µg/mL"},
      {"measurement": "IC50", "setting": "[5]", "result": 0.371, "unit": "µg/mL"},
      {"measurement": "Kd", "setting": "[6]", "result": 16.4, "unit": "nM"},
      {"measurement": "koff", "setting": "[6]", "result": 0.000761, "unit": "s⁻¹"},
      {"measurement": "kon", "setting": "[6]", "result": 46500, "unit": "M⁻¹ s⁻¹"},
      {"measurement": "Kd", "setting": "[7]", "result": 0.656, "unit": "nM"},
      {"measurement": "kon", "setting": "[7]", "result": 305000, "unit": "M⁻¹ s⁻¹"}
    ]},
    {"molecule": "LA49G9.2 humanized anti-VEGF C VHH-Fc antibody (Fc fusion, not shown: Fc part (and any hinge or linker) of the dimerized VHH-Fc antibody) EVQLVESGGGLVQPGGSLRLSCAASGSMFSMYAMGWYRQAPGKQRELVAATTSGGSTLYADSVKGRFTISRDNSKNTLYLQMNSLRAEDTAVYYCYTYWRGSDPENYWGQGTQVTVSS", "values": [
      {"measurement": "koff", "setting": "[3]", "result": "≤ 0.0002", "unit": "s⁻¹"},
      {"measurement": "Kd", "setting": "[7]", "result": "≤ 0.645", "unit": "nM"},
      {"measurement": "kon", "setting": "[7]", "result": 310000, "unit": "M⁻¹ s⁻¹"}
    ]},
    {"molecule": "LA63G12.1 humanized anti-VEGF C VHH-Fc antibody (Fc fusion, not shown: Fc part (and any hinge or linker) of the dimerized VHH-Fc antibody) EVQLVESGGGLVQPGGSLRLSCAASGSSFSPYAMGWYRQAPGKQRELVSATTSGGSTLYADSVKGRFTISRDNSKNTVYLQMNSLRAEDTAVYYCYMHWRGSDPENYWGQGTQVTVSS", "values": [
      {"measurement": "IC50", "setting": "[2]", "result": 0.492, "unit": "µg/mL"},
      {"measurement": "koff", "setting": "[3]", "result": "≤ 0.0002", "unit": "s⁻¹"},
      {"measurement": "IC50", "setting": "[4]", "result": 0.182, "unit": "µg/mL"},
      {"measurement": "Kd", "setting": "[7]", "result": "≤ 0.622", "unit": "nM"},
      {"measurement": "kon", "setting": "[7]", "result": 322000, "unit": "M⁻¹ s⁻¹"}
    ]},
    {"molecule": "LA49G9 anti-VEGF C VHH antibody (VHH, The prokaryotic product was purified on Ni Sepharose) VHH: QLQLVESGGGLVQPGGSLRLSCAASGSMFSMYAMGWYRQAPGKQRELVAATTSGGSTLYADSVKGRFTISRDNAENTVYLQMNSLKPEDTAVYYCYTYWRGSDPENYWGRGTQVTVSS", "values": [
      {"measurement": "IC50", "setting": "[2]", "result": 0.151, "unit": "µg/mL"},
      {"measurement": "IC50", "setting": "[1]", "result": 0.236, "unit": "µg/mL"},
      {"measurement": "koff", "setting": "[8]", "result": "≤ 0.0002", "unit": "s⁻¹"},
      {"measurement": "IC50", "setting": "[4]", "result": 0.0815, "unit": "µg/mL"},
      {"measurement": "IC50", "setting": "[5]", "result": 0.352, "unit": "µg/mL"},
      {"measurement": "Kd", "setting": "[6]", "result": 10, "unit": "nM"},
      {"measurement": "koff", "setting": "[6]", "result": 0.000544, "unit": "s⁻¹"},
      {"measurement": "kon", "setting": "[6]", "result": 54300, "unit": "M⁻¹ s⁻¹"},
      {"measurement": "Kd", "setting": "[7]", "result": 0.613, "unit": "nM"},
      {"measurement": "kon", "setting": "[7]", "result": 326000, "unit": "M⁻¹ s⁻¹"}
    ]},
    {"molecule": "am63G12-14B11 affinity-matured humanized anti-VEGF C VHH antibody (VHH, also called am63G12.1-14B11) VHH: EVQLVESGGGLVQPGGSLRLSCAASGSSFSPYAMGWYRQAPGKQRELVSATSEGGFTLYADSVKGRFTISRDNSKNTVYLQMNSLRAEDTAVYYCYMHWRGSDPENYWGQGTQVTVSS", "values": [
      {"measurement": "IC50", "setting": "[2]", "result": 0.0191, "unit": "µg/mL"},
      {"measurement": "Kd", "setting": "[6]", "result": 6.21, "unit": "nM"},
      {"measurement": "koff", "setting": "[6]", "result": 0.000343, "unit": "s⁻¹"},
      {"measurement": "kon", "setting": "[6]", "result": 55300, "unit": "M⁻¹ s⁻¹"}
    ]},
    {"molecule": "am63G12-5G8-18B9 affinity-matured humanized anti-VEGF C VHH antibody (VHH, also called Am63G2-5G8-18B9; am63G12.1-5G8-18B9) VHH: EVQLVESGGGLVQPGGSLRLSCAASGSSFSPYAMGWYRQAPGKQRELVSATSSGGFTLYADSVKGRFTISRDNSKNTVYLQMNSLRAEDTAVYYCYTYYREYDPEMYWGQGTQVTVSS", "values": [
      {"measurement": "IC50", "setting": "[4]", "result": 0.0215, "unit": "µg/mL"},
      {"measurement": "Kd", "setting": "[6]", "result": 5.7, "unit": "nM"},
      {"measurement": "koff", "setting": "[6]", "result": 0.00036, "unit": "s⁻¹"},
      {"measurement": "kon", "setting": "[6]", "result": 63100, "unit": "M⁻¹ s⁻¹"}
    ]}
  ]
}
